# Results reported in the supplement of paper PMC12042874.
# ± gives the uncertainty stated by the source.
# Test: amyloid nucleation score (Sup35N fusion, yeast selection) (log enrichment); library NNK1; higher = more nucleation; inactive = no reads after selection
# How it was run: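 Peptides of 20 random codons fused to Sup35N were expressed in psi-negative yeast, induced 24 hours with 100 μM copper sulfate, then grown 7 days at 30°C on medium lacking adenine and uracil. Input and output plasmid inserts were Illumina-sequenced. Nucleation score is the DiMSum log enrichment of output over input reads, centred on the mode score of non-aggregating sequences, excluding sequences with under 100 input reads. Random libraries had three technical output replicates.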
row,Substance,amyloid nucleation score
1,LGGVSSVLFYSHFLQVLEWC,-1.12 ± 0.78
2,PFCGTFVCGVGLWIRVNCNR,0.728 ± 0.74
3,LSMGRYRPKRFLLRNTSDTL,-0.438 ± 0.44
4,SRWKLGGGDL,0.006 ± 0.64
5,IGYRCIVLS,1.24 ± 0.45
6,LLNAAHIEGT,0.064 ± 0.59
7,PFVDVTRHRNSPS,1.01 ± 1
8,WVRSNKGQAGSG,0.886 ± 1
9,GLVRDTTTMNVSLSVMSSAR,1.39 ± 0.84
10,RWSQNMGSKSVRGTKFNLKL,0.846 ± 0.21
11,RYMLFVFHSLTGYYIRRFVY,-1.22 ± 1
12,IQYDSFNVRFDIATAIDYFA,-0.12 ± 0.67
13,SVHSLMRDRISVPPRIVKNP,-0.008 ± 0.61
14,VESDKCQLGTLSIMYICFFL,inactive
15,VATIQRISGIKQESAGSRTF,-0.07 ± 0.93
16,NLTGGCLGVRWDMVECAWYY,3.77 ± 0.068
17,LRPSPKVWHDFWGMM,0.437 ± 0.47
18,PLCPSGRNYVS,-0.159 ± 0.25
19,IYQLDVLGFDFN,inactive
20,FIWGLKLVDFSLPVSAL,-0.411 ± 0.51
21,LVPWGSFFALA,-0.146 ± 0.97
22,AWAVGFYPFCRMFRSLYNYW,0.387 ± 0.98
23,VCRQMYVLDCYS,inactive
24,LHAGRDSAASGPRISIWKPM,0.077 ± 0.38
25,CSWVTPNGRVLHCLTNLYYY,0.297 ± 0.59

row,Substance,amyloid nucleation score
1,GLAGTLDPLTASDLLSRIGV,0.182 ± 0.62
2,SSLRPRKCCWRKTRRLSKGG,0.441 ± 0.67
3,GRNRRDVMSRSYSVVG,-0.72 ± 1.1
4,ALFCSTIRNQIGFIRHPESF,0.026 ± 0.58
5,TSSCLVYL,-0.413 ± 0.55
6,EQENMCSVRQACIYH,1.57 ± 0.29
7,TKVFGRYLVVSGRFCIIEKK,-0.371 ± 0.38
8,TCHLIL,-0.872 ± 0.34
9,LLNCLWDKMWTGLVRCIKNG,-0.075 ± 0.35
10,AHFHPLEVRFTIHDFLADNL,-0.215 ± 0.5
11,YFTERL,0.122 ± 0.44
12,SHDFVVIISNCR,5.57 ± 0.093
13,AVRTAFLAAHM,-0.64 ± 0.98
14,ELSLKVFPTARIKRCMFEPM,0.838 ± 0.45
15,GTIENFHGVTN,0.413 ± 0.49
16,TFWTLVQQATVKHMLYGTFL,-0.663 ± 1.9
17,SPFMGCLYNLLDLDDGS,-0.65 ± 0.51
18,AIKCHL,-0.721 ± 1.9
19,WCSLRSDW,inactive
20,RVFSSFGFMKRRPVWTVWIT,-0.324 ± 0.81
21,NWRQEYVFAY,-1.37 ± 2.4
22,WRMRYKC,-0.338 ± 1.2
23,SYNQLDKCR,inactive
24,NIHSEAPISPSMPGLREVTA,0.219 ± 0.32
25,WLVCNEGSIMDLASGLGLIR,0.561 ± 0.66

row,Substance,amyloid nucleation score
1,LYHGVYPKFLYKLVVESSLS,-1.79 ± 1.7
2,MFGFHRNRDDHSCIHFTFK,2.58 ± 0.15
3,RWLETVGECCCESARVFCA,-0.45 ± 0.59
4,FLFLYNVGVVIRSGYMFLRS,0.088 ± 0.93
5,LAISL,-0.444 ± 0.36
6,LALMFFNLKSCIFMSMWLFT,1.65 ± 0.57
7,LHLFGQ,0.067 ± 0.38
8,QCMSMSYPFMPRTHQRTVLK,-0.179 ± 0.31
9,MNFDCFPNSL,1.22 ± 0.35
10,CFCFLRFYRLQPNAQLDSKS,1.69 ± 0.31
11,GELCMLSVW,0.729 ± 0.79
12,RELNSRPVFYLLGMDQSIGA,4.43 ± 0.14
13,FVTANMTKLFTLWNWRLPGK,0.583 ± 0.29
14,SHVPEVGVGSDAVFLANKGI,-0.855 ± 0.69
15,EFRKEG,1.02 ± 0.52
16,FLMLRAYESMARFYDVLWIG,0.088 ± 0.37
17,TSTYWQVDEAV,-0.325 ± 0.52
18,LFHCRSIDRNLYYRHAFLIY,0.466 ± 0.39
19,FTESCRRGI,0.053 ± 0.4
20,RPRICLWWSLNQMDVWNRDR,2.17 ± 0.31
21,NMIESIVDISTPFIHGMIND,0.295 ± 1.1
22,INLGLVGSRFGSNMERLYGG,0.503 ± 1.1
23,GGLWYTSTYSIYG,2.42 ± 0.48
24,ICIDCYQGC,-0.721 ± 1.9
25,AADGGYCRCGNDRKCLYAFR,inactive

row,Substance,amyloid nucleation score
1,SVDLVMEYSCDGNTLDFRSL,0.157 ± 1.4
2,FLYWSHSYFLITWFRCVLEI,inactive
3,VDLALLYCDIKMQLV,1.14 ± 0.88
4,SRPSQCYINAFMFSMFKSGN,inactive
5,YNYSRYIRERFWFYT,0.115 ± 0.38
6,CDNQVSGLNGS,inactive
7,YHGVTLVSLLRYKLW,1.28 ± 0.27
8,FSYKIMTSGTCTTWRNAFFS,-0.341 ± 0.33
9,ILEFDDKKVLNLVEGKLLGA,-0.383 ± 1.7
10,LPLGYRLLAQPCPESSRTPA,0.001 ± 0.53
11,PSYHGYLGLSNPVRYRMCV,0.197 ± 0.28
12,VILSYCLIFLK,-0.647 ± 0.48
13,AGRSNF,-0.062 ± 1.2
14,PVARTPHWVLAVRWHALIWG,1.4 ± 0.29
15,AFRQVRKIVQAGTGGVQ,-0.324 ± 0.58
16,YELRFMRVEQGSQYREVS,-0.159 ± 0.37
17,HGTCRC,0.034 ± 0.68
18,SGHGFLRQ,inactive
19,MGHVLGVYKSP,1.2 ± 0.46
20,LLTSIPRRVIARVSEGFCCN,-0.311 ± 0.71
21,HSRYWSNIHSRWLTGRVRWG,-0.28 ± 0.51
22,RRVTCGLQGVLRENR,0.4 ± 0.46
23,VLTLSTKLCLHRGGWTTKPT,4.2 ± 0.068
24,GGTWPYTAVRWVIWRLWGEG,0.129 ± 0.64
25,ASGLMLFIMPFRWGWNSVFT,0.683 ± 0.42

row,Substance,amyloid nucleation score
1,FRHYTANYWYISRRRRMLSV,inactive
2,VSSTYNSFRFVSLGKFNHHC,2.71 ± 0.17
3,YNDYACRYCFLVGTMD,7.615 ± 0.052
4,SHAFRITS,0.619 ± 0.85
5,ILSRVCVRGCIHLPSRMCRS,inactive
6,GVLSKSSKLFNCKDYCHSKY,1.13 ± 0.35
7,WFDELGRDFLV,-0.193 ± 1.6
8,LSMSTFVKVCDVNAYPKGTA,0.358 ± 1.1
9,KLESCN,0.39 ± 1.2
10,DACCYDECVS,0.782 ± 0.25
11,VCGGETLPRVVSNGGRSPRV,0.602 ± 0.35
12,LWSVKEGWGRPEAGHRQLWG,-0.413 ± 0.52
13,SMVAPRPANVRVRLVGRGST,0.354 ± 0.51
14,GSICSVVVTMLVFSNKVTSL,-0.353 ± 0.6
15,DVIHDICHAVSIIGAWCRDR,-0.061 ± 0.3
16,CSRRFYESPCKEPAA,0.145 ± 0.43
17,GGHFWWNTGQARVNWTIRLE,0.123 ± 0.48
18,IWIDKRWLMMPKLVRKVPNV,inactive
19,PAGTGINLMICVARGGRTSG,5.24 ± 0.1
20,DIRVIVRIYQSIINL,3.15 ± 0.09
21,FIRSVKRGARWSGGNFFIEG,inactive
22,PNYEVDCDMFYSSFVGGFRV,0.173 ± 1.4
23,DINSYVAYLVYEGLVNGSDE,0.252 ± 0.46
24,PIGLMGFRLSSICLSIRTLP,-0.469 ± 0.65
25,IGVSVTPLLLKNKRPVTDVM,1.07 ± 0.84

row,Substance,amyloid nucleation score
1,EYVHLNQVNDAGGVDSGTLS,0.823 ± 0.28
2,MVRNKQKLLKGQ,0.375 ± 0.49
3,KIEFIGDVRFA,0.92 ± 0.67
4,LTTYFHFMSMTEWAWRRRSK,0.538 ± 0.29
5,YPWIFCFEILHYYQLVRLWG,-1.13 ± 0.55
6,LRSRR,1.41 ± 0.76
7,RPGVNLWVLFVTMQTPEIRL,3.01 ± 0.11
8,PSGCFVWEML,inactive
9,RVSSHGLILHFDKDNSMIAV,0.936 ± 0.61
10,NGGYYAMGVGFLYVFALCHD,2.05 ± 0.27
11,VIAMDNDRYFGSVFSYIRMN,-0.147 ± 0.29
12,DLSWGSRHY,-0.899 ± 0.42
13,ANRYRVLKE,3.88 ± 0.095
14,YYDTEGIHHSSIQRCQIRAG,1.16 ± 0.58
15,FCISLFSHWFALW,5.72 ± 0.067
16,VLPLQKPRDVGSVISARQWG,0.837 ± 0.53
17,IIAIPHLTLSWTNLSMGQG,3.76 ± 0.1
18,GGGVMASDKPCTRVSLINKM,0.161 ± 0.7
19,EPAFL,0.229 ± 0.42
20,RIWSLRPFRSEYLRVCFFVS,0.437 ± 0.78
21,SFSLSLVFRISPDGLGHFLQ,0.412 ± 0.3
22,IGSFDYGSNLGQIYGHNMLK,-0.685 ± 0.6
23,GEKWMLEVASFICKSGFRVC,-0.535 ± 1.7
24,WVWSLRLLGFNNLMDKATGF,-0.312 ± 0.24
25,GVPVYAVFLVDAMMYVCCMF,3.51 ± 0.14

row,Substance,amyloid nucleation score
1,NVMVTFFGCIRKWRSNWSQE,-0.016 ± 0.48
2,RNWLLDTNSLQVMSPYIFEV,-0.41 ± 0.74
3,FIGGLHMALYDYPVEGSALA,0.622 ± 0.76
4,CSPLVGMTGAMLTVRGSISR,0.019 ± 1
5,VSTSLGHLVDWGKSM,inactive
6,YRRDYGPKSVDWRPYVVEVR,0.359 ± 0.64
7,MAGYL,-0.078 ± 0.48
8,QSWHEWDM,inactive
9,HLSWLRINLPGSPHPPMSLP,3.57 ± 0.11
10,AFRRRGSVPRGRASPHIFVV,7.948 ± 0.065
11,VDRCGFGVFATVGMSCMDSF,0.918 ± 0.45
12,VFGLLPVSSCIVRNRRDLRN,-0.371 ± 0.27
13,FISSNDIYGGATGWDSSDVT,-0.743 ± 0.36
14,LYSCMRVVATATVSGGLVIE,-0.843 ± 0.69
15,PDSFCFTMHLRKDEMMTSCK,-0.053 ± 1
16,RIMMMGQLTFVYMGQHSSMV,-0.062 ± 0.57
17,LNDNLGSMFSL,-0.772 ± 0.64
18,SSFRVGTIVTNSAWRWSPCW,5.4 ± 0.062
19,MPLKVSSMDLGRIKE,-0.333 ± 0.41
20,ELRCTTWSRSPSLQVALVDL,-0.499 ± 0.59
21,WCARNISRCPSNISGNLGMK,-0.461 ± 0.69
22,NLTRSVHVMRQVIVQHFIGN,0.424 ± 0.72
